Experimental data: publication PMC8191795 (Nucleic Acids Research, 2020)
“And” between values parts separate entries of the source, which are not always exact repeats. Equal entries are not always repeated. Where two headings read alike, the source gives them in different places.

Columns and labels:
SmcR WT = biological target: T1, SmcR WT (Vibrio vulnificus, UniProt Q9L8G8 1-205); test: EMSA
T1 sequence: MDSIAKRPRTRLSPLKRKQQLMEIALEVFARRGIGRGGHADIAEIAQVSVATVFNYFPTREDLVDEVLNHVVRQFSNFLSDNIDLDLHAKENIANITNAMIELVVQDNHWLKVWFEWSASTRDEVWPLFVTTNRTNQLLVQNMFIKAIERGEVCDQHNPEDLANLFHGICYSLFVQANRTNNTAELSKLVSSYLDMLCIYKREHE

SmcR N55I = biological target: T2, SmcR N55I (Vibrio vulnificus, UniProt Q9L8G8 1-205, N55I); test: EMSA
T2 sequence: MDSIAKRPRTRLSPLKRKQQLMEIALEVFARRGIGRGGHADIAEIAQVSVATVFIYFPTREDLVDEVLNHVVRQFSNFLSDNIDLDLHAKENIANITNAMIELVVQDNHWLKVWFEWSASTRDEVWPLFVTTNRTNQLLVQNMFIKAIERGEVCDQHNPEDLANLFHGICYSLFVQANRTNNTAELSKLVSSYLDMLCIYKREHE

[1] = biological target: his-tagged V. harveyi RNAP alpha subunit (Vibrio harveyi, UniProt A0A0B4IMU9 1-330); test: BLI
SAXS [2] = biological target: the molecule itself; test: SAXS
SAXS [3] = biological target: the molecule itself; test: SAXS; remark: listed apart in the source
SmcR N142D = biological target: T3, SmcR N142D (Vibrio vulnificus, UniProt Q9L8G8 1-205, N142D); test: EMSA
T3 sequence: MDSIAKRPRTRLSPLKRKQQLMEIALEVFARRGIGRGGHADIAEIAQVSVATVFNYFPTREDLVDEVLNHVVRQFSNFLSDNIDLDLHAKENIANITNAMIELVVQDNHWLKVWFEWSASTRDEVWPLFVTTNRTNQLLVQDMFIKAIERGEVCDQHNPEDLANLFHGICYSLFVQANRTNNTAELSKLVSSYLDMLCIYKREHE

SmcR S76A = biological target: T4, SmcR S76A (Vibrio vulnificus, UniProt Q9L8G8 1-205, S76A); test: EMSA
T4 sequence: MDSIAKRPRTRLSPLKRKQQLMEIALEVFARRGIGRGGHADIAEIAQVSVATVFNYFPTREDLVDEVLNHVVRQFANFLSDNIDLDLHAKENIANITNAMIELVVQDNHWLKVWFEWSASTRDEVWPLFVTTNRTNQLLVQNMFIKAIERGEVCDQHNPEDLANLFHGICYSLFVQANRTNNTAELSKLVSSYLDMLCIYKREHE

SmcR L139R = biological target: T5, SmcR L139R (Vibrio vulnificus, UniProt Q9L8G8 1-205, L139R); test: EMSA
T5 sequence: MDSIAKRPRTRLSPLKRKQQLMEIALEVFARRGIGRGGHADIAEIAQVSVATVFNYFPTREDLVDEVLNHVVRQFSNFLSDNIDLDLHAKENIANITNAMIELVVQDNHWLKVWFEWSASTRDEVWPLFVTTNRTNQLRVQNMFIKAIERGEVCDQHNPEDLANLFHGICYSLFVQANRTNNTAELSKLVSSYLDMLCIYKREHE

B1: PluxC site E T4A (JDN44/JDN45) (dsDNA)
DNA 1: TCTAATTATAGTTTGATTTATTAATAATTAGT
DNA 2: ACTAATTATTAATAAATCAAACTATAATTAGA
Kd (SmcR WT): 1.53 nM | Kd (SmcR N55I): 13.4 nM

B2: PluxC site E A17T (JDN46/JDN47) (dsDNA)
DNA 1: TCTAATTATTGTTTGATTTATTTATAATTAGT
DNA 2: ACTAATTATAAATAAATCAAACAATAATTAGA
Kd (SmcR WT): 2.71 nM | Kd (SmcR N55I): 44.6 nM

B3: PluxC site E T4A,A17T (JCV1107/JCV1108) (dsDNA)
DNA 1: TCTAATTATTGTTTGATTTATTAATAATTAGT
DNA 2: ACTAATTATTAATAAATCAAACAATAATTAGA
Kd (SmcR WT): 2.04 nM | Kd (SmcR N55I): 1.91 nM

B4: SmcR wild-type, untagged (Vibrio vulnificus) (natural protein)
chain: MDSIAKRPRTRLSPLKRKQQLMEIALEVFARRGIGRGGHADIAEIAQVSVATVFNYFPTREDLVDEVLNHVVRQFSNFLSDNIDLDLHAKENIANITNAMIELVVQDNHWLKVWFEWSASTRDEVWPLFVTTNRTNQLLVQNMFIKAIERGEVCDQHNPEDLANLFHGICYSLFVQANRTNNTAELSKLVSSYLDMLCIYKREHE
Kd [1]: 142 nM

B5: SmcR wild-type, 6Xhis-tagged (Vibrio vulnificus) (natural protein)
chain: MDSIAKRPRTRLSPLKRKQQLMEIALEVFARRGIGRGGHADIAEIAQVSVATVFNYFPTREDLVDEVLNHVVRQFSNFLSDNIDLDLHAKENIANITNAMIELVVQDNHWLKVWFEWSASTRDEVWPLFVTTNRTNQLLVQNMFIKAIERGEVCDQHNPEDLANLFHGICYSLFVQANRTNNTAELSKLVSSYLDMLCIYKREHE
stoichiometry N (SAXS [2]): 2 and 4

B6: SmcR N55I, untagged (Vibrio vulnificus) (natural protein)
chain: MDSIAKRPRTRLSPLKRKQQLMEIALEVFARRGIGRGGHADIAEIAQVSVATVFIYFPTREDLVDEVLNHVVRQFSNFLSDNIDLDLHAKENIANITNAMIELVVQDNHWLKVWFEWSASTRDEVWPLFVTTNRTNQLLVQNMFIKAIERGEVCDQHNPEDLANLFHGICYSLFVQANRTNNTAELSKLVSSYLDMLCIYKREHE
Kd [1]: 160 nM | stoichiometry N (SAXS [3]): 2 and 4

B7: PvvpM (AB316/AB317) (dsDNA)
DNA 1: ACACTTATCTTTAGTGACAAACTCATAAATAGCAAGTTCTCACACGGTC
DNA 2: GACCGTGTGAGAACTTGCTATTTATGAGTTTGTCACTAAAGATAAGTGT
Kd (SmcR N142D): 0.568 nM | Kd (SmcR S76A): 0.167 nM | Kd (SmcR WT): 0.143 nM | Kd (SmcR L139R): 0.322 nM | Kd (SmcR N55I): 0.266 nM

B8: PvvpE (AB324/AB325) (dsDNA)
DNA 1: ATAAATCAAATTTGTAACTTTATTTCTGAGATGACTGTCCCATTTATCTTATTGATAAATCTGCGTAAAAAAGAAAAAGCACAATTTTATTACTAGTGTTT
DNA 2: AAACACTAGTAATAAAATTGTGCTTTTTCTTTTTTACGCAGATTTATCAATAAGATAAATGGGACAGTCATCTCAGAAATAAAGTTACAAATTTGATTTAT
Kd (SmcR N142D): 6.68 nM | Kd (SmcR S76A): 0.363 nM | Kd (SmcR WT): 2.18 nM | Kd (SmcR L139R): 3.53 nM | Kd (SmcR N55I): 142 nM
